# In patent US7994133B2, “Isozyme-specific antagonists of protein kinase C” (The Board of Trustees of the Leland Stanford Junior …, priority 2003, dated 2011):
# Tests used:
# [1] = system: CHO cells; assay: Real-time confocal imaging of ATP-induced εPKC translocation; assay type: cell-based; details: 1 mM ATP; for time after stimulation at which translocation was apparent: GFP fusion
# Method: CHO cells were grown on glass coverslips, and serum-starved as described in Example 4. For each experiment, cells were transferred to a commercially available metal coverslip holder (Molecular Probes) in which the coverslip formed the bottom of a 1 ml bath. The media was then replaced with extracellular buffer (120 mM NaCl, 5 mM KCl, 1.5 mM CaCl2, 1.5 mM MgCl2, 20 mM HEPES and 30 mM glucose). Cells were stimulated by either PMA (100 nM), or with ATP (1 mM) in extracellular buffer. Fluorescence images of GFP-tagged constructs were obtained using the 488 nm excitation line of a laser scanning confocal microscope (Pascal, Zeiss) and emission was collected through a 505-550 nm band pass filter. Cells were imaged on the stage of an inverted microscope (Axiovert 100M) using a 40× Zeiss Plan-apo oil immersion objective with 1.2 numerical aperture (NA). For dual color imaging of CFP and YFP fusion proteins, a spinning disk Nipkow confocal microscope was used. Cells were viewed using an inverted Olympus IX70 microscope with a 40× oil immersion Olympus objective (1.35NA) and images were acquired with a CCD camera (Hamamatsu) and 2×2 pixel binning. CFP was excited with the 442 nm laser line of a helium-cadmium laser (Kimmon) whereas YFP was imaged with the 514 nm line of an argon ion laser (Melles-Griot). To selectively photobleach YFP labeled proteins in local regions of the cytoplasm for FRAP experiments, the 514 nm line of an Enterprise laser (Coherent) at maximal power (˜400 mW) was used. For these experiments, a 60× oil immersion objective was used (1.4NA). Under these conditions, and by placing an iris in the beam path, it was possible to bleach 80% of the YFP fluorescence in 500 ms in an area of the cytosol measuring approximately 35 um2. Real time confocal images were acquired every 10-15 seconds for 20 minutes for experiments utilizing PMA, and every 5 seconds for a total duration of 3 minutes in the case of cells stimulated with ATP. Reagents were added to the cell chamber after the fifth image in each time series. […] All images were acquired at room temperature. Images were exported as 12 or 16 bit files and changes in fluorescence intensity were measured using MetaMorph® data analysis software (Universal Imaging Corp.). To monitor the translocation of PKC, a small region of interest was selected in the cytosol of each cell and fluorescence intensity values graphed against time after subtraction of background values and normalized so that the initial fluorescence was 100%. Averages of 10-15 cells from three independent experiments were used. To determine statistical significance, a 1 tail type 2 T-test (Microsoft excel) was used.
# It was next determined whether differences in translocation rates of the different εPKCs were also observed when translocation was stimulated via receptor signaling rather than by PMA. ATP has been previously used to activate PKC in CHO cells by stimulating purinergic G protein-coupled receptors [Maasch, C. et al., FASEB J. 14:1653-1663 (2000)]. All methods for this Example were performed as described, for example, in Examples 4, 6 and 7.
# [2] = system: CHO and MCF-7 cells; assay: PKC translocation by Western blot, soluble to particulate fraction, after PMA; assay type: cell-based; details: 10 minutes PMA, 100 nM in CHO, 10 nM in MCF-7
# Method: To assess PKC distribution the different cell fractions were run on SDS PAGE, transferred for Western blot analysis and probed with anti-εPKC V5 antibodies. Lysates of overexpressed GFP-εPKC were diluted to approximately 0.2 μg/well. At this concentration endogenous εPKC was not detected. All other methods for this Example were performed as described, for example, in Example 4. It was also confirmed that the Wt and ΨεRACK εPKC mutants were sensitive to activation by phorbol ester and that they translocated from the soluble to the particulate fraction of the cell upon activation. Translocation of the εPKC mutants was determined using two different cell lines, MCF-7 and CHO. [CHO cells were stimulated for 10 minutes with 100 nM PMA (FIG. 6C). MCF-7 cells were stimulated with 10 nM PMA for 10 minutes (FIG. 6D, 6E), since stimulation of MCF-7 cells with higher doses of PMA caused a detachment of the cells]. After treatment with PMA, cells were fractionated into soluble and particulate fractions, and GFP-εPKC was detected and quantified by Western blot analysis using anti-εPKC. […] This is not due to PKC degradation; the total amount of εPKC was not changed upon activation. Therefore, GFP-εPKC ΨεRACK mutants were catalytically active and responded to activation by PMA by translocating from the soluble to the particulate fraction of the cell.
Molecule,time after stimulation at which translocation was apparent [1] [s],increase of εPKC in the particulate fraction compared with D(86)N or Wt [2],steady state level compared with D(86)A or Wt [1],translocation rate in comparison to wild type [1]
D(86)A: εPKC mutant wherein D at position 86 of ΨεRACK on εPKC is substituted with an A (protein) MVVFNGLLKIKICEAVSLKPTAWSLRHAVGPRPATFLLDPYIALNVDDSRIGQTATKQKTNSPAWHDEFVTDVCNGRKIELAVFHAAPIGYDDFVANCTIQFEELLQNGSRHFEDWIDLEPEGRVYVIIDLSGSSGEAPKDNEERVFRERMRPRKRQGAVRRRVHQVNGHKFMATYLRQPTYCSHCRDFIWGVIGKQGYQCQVCTCVVHKRCHELIITKCAGLKKQETPDQVGSQRFSVNMPHKFGIHNYKVPTFCDHCGSLLWGLLRQGLQCKVCKMNVHRRCETNVAPNCGVDARGIAKVLADLGVTPDKITNSGQRRKKLIAGAESPQPASGGSPSEEDRSKSAPTSPCDQEIKELENNIRKALSFDNRGEEHRAASSPDGQLMSPGENGEVRQGQAKRLGLDEFNFIKVLGKGSFGKVMLAELKGKDEVYAVKVLKKDVILQDDDVDCTMTEKRILALARKHPYLTQLYCCFQTKDRLFFVMEYVNGGDLMFQIQRSRKFDEPRSRFYAAEVTSALMFLHQHGVIYRDLKLDNILLDAEGHCKLADFGMCKEGILNGVTTTTFCGTPDYIAPEILQELEYGPSVDWWALGVLMYEMMAGQPPFEADNEDDLFESILHDDVLYPVWLSKEAVSILKAFMTKNPHKRLGCVASQNGEDAIKQHPFFKEIDWVLLEQKKIKPPFKPRIKTKRDVNNFDQDFTREEPVLTLVDEAIVKQINQEEFKGFSYFGEDLMP,10,greater increase,,
D(86)N: εPKC mutant wherein D at position 86 of ΨεRACK in εPKC is substituted with an N (protein) MVVFNGLLKIKICEAVSLKPTAWSLRHAVGPRPATFLLDPYIALNVDDSRIGQTATKQKTNSPAWHDEFVTDVCNGRKIELAVFHNAPIGYDDFVANCTIQFEELLQNGSRHFEDWIDLEPEGRVYVIIDLSGSSGEAPKDNEERVFRERMRPRKRQGAVRRRVHQVNGHKFMATYLRQPTYCSHCRDFIWGVIGKQGYQCQVCTCVVHKRCHELIITKCAGLKKQETPDQVGSQRFSVNMPHKFGIHNYKVPTFCDHCGSLLWGLLRQGLQCKVCKMNVHRRCETNVAPNCGVDARGIAKVLADLGVTPDKITNSGQRRKKLIAGAESPQPASGGSPSEEDRSKSAPTSPCDQEIKELENNIRKALSFDNRGEEHRAASSPDGQLMSPGENGEVRQGQAKRLGLDEFNFIKVLGKGSFGKVMLAELKGKDEVYAVKVLKKDVILQDDDVDCTMTEKRILALARKHPYLTQLYCCFQTKDRLFFVMEYVNGGDLMFQIQRSRKFDEPRSRFYAAEVTSALMFLHQHGVIYRDLKLDNILLDAEGHCKLADFGMCKEGILNGVTTTTFCGTPDYIAPEILQELEYGPSVDWWALGVLMYEMMAGQPPFEADNEDDLFESILHDDVLYPVWLSKEAVSILKAFMTKNPHKRLGCVASQNGEDAIKQHPFFKEIDWVLLEQKKIKPPFKPRIKTKRDVNNFDQDFTREEPVLTLVDEAIVKQINQEEFKGFSYFGEDLMP,40,,significantly higher levels,slower translocation rate
"Wt: wild type εPKC, human construct (protein) MVVFNGLLKIKICEAVSLKPTAWSLRHAVGPRPATFLLDPYIALNVDDSRIGQTATKQKTNSPAWHDEFVTDVCNGRKIELAVFHDAPIGYDDFVANCTIQFEELLQNGSRHFEDWIDLEPEGRVYVIIDLSGSSGEAPKDNEERVFRERMRPRKRQGAVRRRVHQVNGHKFMATYLRQPTYCSHCRDFIWGVIGKQGYQCQVCTCVVHKRCHELIITKCAGLKKQETPDQVGSQRFSVNMPHKFGIHNYKVPTFCDHCGSLLWGLLRQGLQCKVCKMNVHRRCETNVAPNCGVDARGIAKVLADLGVTPDKITNSGQRRKKLIAGAESPQPASGGSPSEEDRSKSAPTSPCDQEIKELENNIRKALSFDNRGEEHRAASSPDGQLMSPGENGEVRQGQAKRLGLDEFNFIKVLGKGSFGKVMLAELKGKDEVYAVKVLKKDVILQDDDVDCTMTEKRILALARKHPYLTQLYCCFQTKDRLFFVMEYVNGGDLMFQIQRSRKFDEPRSRFYAAEVTSALMFLHQHGVIYRDLKLDNILLDAEGHCKLADFGMCKEGILNGVTTTTFCGTPDYIAPEILQELEYGPSVDWWALGVLMYEMMAGQPPFEADNEDDLFESILHDDVLYPVWLSKEAVSILKAFMTKNPHKRLGCVASQNGEDAIKQHPFFKEIDWVLLEQKKIKPPFKPRIKTKRDVNNFDQDFTREEPVLTLVDEAIVKQINQEEFKGFSYFGEDLMP",10,,,
